B1: Pro(Sol)-6C fusion protein, produced in L. lactis (protein)
chain: EYVDEKERQGEIYPFGDEEEKDEGGESFTYEKSEVDKTDLFKFIEGGEGDDVYKVDGSKVLLDDDTISRVSKKHTARDGEYGEYGEAVEDGENVIKIIRSVLQSGALPSVGVDELDKIDLSYETTESGDTAVSEDSYDKYASNNTNKEKESGSVSSEQLAQFRSLDEKKVIHGCNFSSNVSSKHTFTDSLDISLVDDSAHISCNVHLSEPKYNHLVGLNCPGDIIPDCFFQVYQPESEELEPSNIVYLDSQINIGDIEYYEDAEGDDKIKLFGIVGSIPKTTSFTCICKKDKKSAYMTVTIDSA
B2: Pro(Flex2)-6C fusion protein, produced in L. lactis (protein)
chain: EYVDEKERQGEIYPFGDEEEKDEGGESFTYEKSEVDKTDLFKFIEGGEGDDVYKVDGSKVLLDDDTISRVSKKHTARDGEYGEYGEAVEDGENVIKIIRSVLQSGALPSVGVDELDKIDLSYETTESGDTAVSEDSYDKYASNNTNKEGGGGSGGGGSGGGGSEKKVIHGCNFSSNVSSKHTFTDSLDISLVDDSAHISCNVHLSEPKYNHLVGLNCPGDIIPDCFFQVYQPESEELEPSNIVYLDSQINIGDIEYYEDAEGDDKIKLFGIVGSIPKTTSFTCICKKDKKSAYMTVTIDSA
B3: Pro(CsLNK)-6C fusion protein, produced in L. lactis (protein)
chain: EYVDEKERQGEIYPFGDEEEKDEGGESFTYEKSEVDKTDLFKFIEGGEGDDVYKVDGSKVLLDDDTISRVSKKHTARDGEYGEYGEAVEDGENVIKIIRSVLQSGALPSVGVDELDKIDLSYETTESGDTAVSEDSYDKYASNNTNKENMPNDPNRNVDENANANSAVKNNNNEEEKKVIHGCNFSSNVSSKHTFTDSLDISLVDDSAHISCNVHLSEPKYNHLVGLNCPGDIIPDCFFQVYQPESEELEPSNIVYLDSQINIGDIEYYEDAEGDDKIKLFGIVGSIPKTTSFTCICKKDKKSAYMTVTIDSA

Target: rat mAb 45.1 (against Pfs48/45 conformational epitope I)

Row | Binder | % of folding
1 | B1 | 90%
2 | B2 | 100%
3 | B3 | 75%
